Source: patent publication US7799901B2, “Modulators of the function of FAS receptors and other proteins” (Yeda Research and Development Co. Ltd., priority 1995, dated 2010)

T1: MORT-1 (Homo sapiens, UniProt Q13158, G32V)
T1 sequence (Q13158 with tags, fused parts or gaps G32V): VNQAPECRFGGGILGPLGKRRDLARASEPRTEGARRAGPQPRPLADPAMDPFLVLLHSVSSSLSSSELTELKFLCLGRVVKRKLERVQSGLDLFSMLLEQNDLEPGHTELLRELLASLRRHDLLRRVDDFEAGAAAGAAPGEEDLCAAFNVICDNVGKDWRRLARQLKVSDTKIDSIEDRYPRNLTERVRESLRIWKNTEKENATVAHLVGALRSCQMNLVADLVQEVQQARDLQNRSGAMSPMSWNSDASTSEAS


What was measured:
[1] = system: human embryonic kidney 293-EBNA cells; test: Cell death on overexpression of MACH isoforms in 293-EBNA cells; assay type: cell-based; settings: β-galactosidase-expressing cells with apoptopic morphology, 20 h after transfection
Experimental: To explore the involvement of MACH in cell-death induction, the effect of overexpression of various MACH isoforms on cell viability was examined. The test was performed by transfecting MACH expression vectors together with a β-galactosidase expression vector as a transfection marker into human embryonic kidney 293-EBNA cells and breast carcinoma MCF7 cells.
In brief, 293-EBNA cells, MCF7 human breast carcinoma cells and HeLa HtTA-1 cells were grown in Dulbecco's modified Eagle's minimal essential medium supplemented with 10% fetal calf serum, nonessential amino acids, 100 U/ml penicillin and 100 μg/ml streptomycin. Cell tissue culture dishes (5×10^5 293-EBNA cells, 3×10^5 s MCF7 cells or 3×10^5 HeLa cells in 6-cm dishes) were transiently transfected, using the calcium phosphate precipitation method, with the cDNAs of the indicated proteins together with the β-galactosidase expression vector. In the experiments presented in FIGS. 14A-D and 15, each dish was transfected with 3.5 μg of the indicated MACH construct and 1.5 μg of pSV-β-gal. In the experiments presented in FIGS. 16A-D and 17-19, each dish was transfected with 2.5 μg of the indicated MACH or MORT1 construct (or, as control, empty vector) and 1.5 μg of pSV-β-gal. The cells were rinsed 6 to 10 h after transfection. The 293-EBNA and MCF7 cells were incubated for a further 18 h without additional treatment. The HeLa cells were incubated for 26 h after transfection and-then for 5 h in the presence of either anti-Fas.APO1 antibody (CH11, 0.5 μg/ml) or TNF (100 ng/ml), together with cycloheximide (10 μg/ml). The extent of cell death at the end of the incubation periods was assessed by determination of β-galactosidase expression, as described by Kumar et al, 1994.
In particular, FIGS. 14A-D show the morphology of human embryonic kidney 293-EBNA cells transiently expressing the indicated MACH isoforms. The arrows (FIG. 14B) point to apoptopic cells. Photographs were taken 26 h after transfection. […] Data are from three independent experiments with the 293-EBNA cells and two independent experiments with the MCF7 cells.

MORT-1 = biological target: T1, MORT-1; test: Two-hybrid β-galactosidase filter assay (FIG. 5), binding to MORT-1; set-up: the full-length MORT-1 cDNA was used (MORT 1); expressed in transfected cells; host or cells: SFY526 yeast; settings: two hybrid test
Experimental: The yeast two-hybrid test was further applied to evaluate the specificity of binding of MACH to MORT-1, in particular, to define the region in MORT-1 to which MACH binds, as well as to determine which of the MACH ORFs interacts with MORT-1, the procedures being as set forth herein above in Examples 1 and 2. Briefly, various MORT-1 and MACH constructs were prepared for testing the interaction of the proteins encoded by the Gal4 DNA-binding domain and activation domain constructs within transfected SFY526 yeast cells as assessed by the β-galactosidase expression filter assay. The DNA-binding domain constructs were prepared in pGBT9 vectors and the activation domain constructs were prepared in pGAD-GM vectors. For the activation domain constructs, the full-length MACH cDNA was used (MACH), as was a construct encoding only the ORF-B (MACH B) region. Control activation domain constructs were those containing the full-length MORT-1 coding sequence (MORT 1, positive control) and those having no inserts, i.e., “empty” vectors (pGAD-GM). For the DNA-binding domain constructs, the full-length MORT-1 cDNA was used (MORT 1), as were constructs encoding only the MORT-1 […] (MORT-1DD aa 130-245). […] In the assay, the development of color was determined, where the greater the color development, the greater the interaction between the constructs encoded by the DNA-binding domain and activation domain; Color development was depicted by symbols, where “+++” and “+” indicate the development of a strong color within 30 and 90 min. of the assay, respectively, and “−−−” indicates the lack of development of color within 24 hrs. of the assay. […]
In FIG. 5, there is shown the results of the interaction of MORT-1 and MACH within transfected yeast cells. […] Their interaction was assessed by a β-galactosidase expression filter assay as described in Boldin et al (1995b). […]

| Molecule | cell death of transfected 293-EBNA cells [1] | binding to MORT-1 in transfected yeast (MORT-1) |
| --- | --- | --- |
| MACHα1: MACH isoform, cDNA SEQ ID NO: 14, amino acid SEQ ID NO: 7; contains CED3/ICE homology region | massive cell death | scored clearly positive |
| MACHα1 (C360S): MACHα1 mutant in which the catalytic cysteine Cys360 is replaced by Ser (protein) MDFSRNLYDIGEQLDSEDLASLKFLSLDYIPQRKQEPIKDALMLFQRLQEKRMLEESNLSFLKELLFRINRLDLLITYLNTRKEEMERELQTPGRAQISAYRVMLYQISEEVSRSELRSFKFLLQEEISKCKLDDDMNLLDIFIEMEKRVILGEGKLDILKRVCAQINKSLLKIINDYEEFSKERSSSLEGSPDEFSNGEELCGVMTISDSPREQDSESQTLDKVYQMKSKPRGYCLIINNHNFAKAREKVPKLHSIRDRNGTHLDAGALTTTFEELHFEIKPHDDCTVEQIYEILKIYQLMDHSNMDCFICCILSHGDKGIIYGTDGQEAPIYELTSQFTGLKCPSLAGKPKVFFIQASQGDNYQKGIPVETDSEEQPYLEMDLSSPQTRYIPDEADFLLGMATVNNCVSYRNPAEGTWYIQSLCQSLRERCPRGDDILTILTEVNYEVSNKDDKKNMGKQMPQPTFTLRKKLVFPSD | No death | bound |
| MACHβ1: MACH isoform, cDNA SEQ ID NO: 4, amino acid SEQ ID NO: 5; lacks the CED3/ICE homology region (protein) MDFSRNLYDIGEQLDSEDLASLKFLSLDYIPQRKQEPIKDALMLFQRLQEKRMLEESNLSFLKELLFRINRLDLLITYLNTRKEEMERELQTPGRAQISAYRVMLYQISEEVSRSELRSFKFLLQEEISKCKLDDDMNLLDIFIEMEKRVILGEGKLDILKRVCAQINKSLLKIINDYEEFSKERSSSLEGSPDEFSNDFGQSLPNEKQTSGILSDHQQSQFCKSTGESAQTSQH | some slight cell death | binds |
